Assays:
[1] = Kinetics of drug absorption from hGH tip-coated microprotrusion array systems, plasma hGH by ELISA; assay type: in vivo, hairless guinea pigs
Description: However, on the microprotrusion itself, the coating was found unevenly distributed.
Systems remained on the skin for 5 seconds (n=3) or 5 minutes (n=5). A group of animals (n=5) received a subcutaneous injection of 10 μg hGH. Blood samples were collected at time intervals for plasma hGH determination by ELISA. The hGH dose delivered was extrapolated based on an area under the curve (AUC) calculation compared to IV administration of hGH. […] On average, 5 μg of hGH was delivered in each animal, which accounts for approximately 50% of the coated dose.

[2] = guinea pig, in vivo
[3] = Ovalbumin absorption into the skin from dip-coated microprotrusion devices, skin biopsy fluorimetry; assay type: in vivo, hairless guinea pigs; conditions: dip-coated device, 8 mm skin biopsy
Description: The feasibility of coating the microprotrusion devices with ovalbumin was evaluated. A coating solution comprising 200 mg/ml of fluorescein-tagged ovalbumin in water was prepared.
Microprotrusion application was performed using a spring loaded applicator which impacted the system against the animal's skin. […] The average total amount of ovalbumin delivered into the skin (Mavg) during these time intervals was determined by taking an 8 mm skin biopsy at the application site. The skin biopsy sample was then dissolved in hyamine hydroxide (diisobutylcresoxyethoxyethyl) dimethyl) benzylammonium hydroxide, 1 M in ethanol, sold by J. T. Baker (NJ, USA) and the amount of ovalbumin present was determined by fluorimetry. […] Although ovalbumin is not a pharmacological agent used in therapeutics, it is a good model for large potent pharmacologically active agents such as follicle stimulating hormone and erythropoietin.

[4] = Ovalbumin delivery from microprotrusion systems coated with 200, 50 and 10 mg/ml solutions; assay type: in vivo, hairless guinea pigs; conditions: coating solutions 200, 50 and 10 mg/ml, device removed immediately after application
Description: An experiment similar to that described in Example 1 was performed in the HGPs using the identical microprotrusion systems which were coated with aqueous ovalbumin solutions having ovalbumin concentrations of 200, 50, and 10 mg/ml ovalbumin. In all groups the microprotrusion device was removed immediately after application. Application and analysis were performed identically to that described in Example 1.

[5] = Ovalbumin delivery from tip-coated microprotrusion array systems, skin biopsy fluorimetry; assay type: in vivo, euthanized hairless guinea pigs
Description: The coating was limited to the first 150 μm of the microprojection.
The applied systems comprised a coated microprotrusion array, adhered to the center of a LDPE backing with an adhesive (7 cm^2 disc). […] At the end of the wearing time, the system was removed and the skin wiped clean of any residual drug. The total amount of ovalbumin delivered in the skin during these time intervals was determined by dissolving a 8 mm skin biopsy in hyamine hydroxide (10% in methanol). Quantitation was performed by fluorimetry. […] Close to 100% of the dose had been delivered after 1 hour application time (solid bar).

In the case of “hGH: Human growth hormone, model for cytokines, particularly interferon”, the bioavailability ([1]; subcutaneous administration of 10 μg hGH) is reported as 65%, the “hGH delivery, 5 seconds versus 5 minutes wearing times” value ([1]; tip-coated array) is reported as “the same” and the “hGH delivered as share of the coated dose” value ([1]; tip-coated array, 5 seconds or 5 minutes wear) is reported as “approximately 50%”. The “hGH delivered in each animal, on average” value ([1]; tip-coated array, 5 seconds or 5 minutes wear, extrapolated from AUC compared to IV) was 5 µg.

With NC(=O)CC[C@@H]1NC(=O)[C@H](Cc2ccccc2)NC(=O)[C@H](Cc2ccc(O)cc2)NC(=O)CCSSC[C@@H](C(=O)N2CCC[C@H]2C(=O)N[C@H](CCCN=C(N)N)C(=O)NCC(N)=O)NC(=O)[C@H](CC(N)=O)NC1=O [desmopressin] the “Additional drug absorbed after the first two hours” value [2] was “no additional amount of drug was absorbed”, the “amount of desmopressin delivered versus Group B” value [2] was “did not increase significantly” and the “average delivery of desmopressin” value [2] was “about 5 μg”. It also gave an average desmopressin delivered [2] of 18 µg.

B1: ovalbumin: a 45,000 Dalton polypeptide containing an oligosaccharide side chain; model for large pharmacological agents; fluorescein/FITC-tagged in delivery studies (protein, UniProt P01012 2-386, looked up)
Ovalbumin: GSIGAASMEFCFDVFKELKVHHANENIFYCPIAIMSALAMVYLGAKDSTRTQINKVVRFDKLPGFGDSIEAQCGTSVNVHSSLRDILNQITKPNDVYSFSLASRLYAEERYPILPEYLQCVKELYRGGLEPINFQTAADQARELINSWVESQTNGIIRNVLQPSSVDSQTAMVLVNAIVFKGLWEKAFKDEDTQAMPFRVTEQESKPVQMMYQIGLFRVASMASEKMKILELPFASGTMSMLVLLPDEVSGLEQLESIINFEKLTEWTSSNVMEERKIKVYLPRMKMEEKYNLTSVLMAMGITDVFSSSANLSGISSAESLKISQAVHAAHAEINEAGREVVGSAEAGVDAASVSEEFRADHPFLFCIKHIATNAVLFFGRCVSP
modifications: fluorescein/FITC label
notes: a 45,000 Dalton polypeptide containing an oligosaccharide side chain; model for large pharmacological agents; fluorescein/FITC-tagged in delivery studies
For B1, the ovalbumin delivered intracutaneously ([3]; 5 second piercing) was “about 25 μg”, the ovalbumin delivered intracutaneously ([3]; 1 hour application period) was “up to 80 μg” and the “delivery of ovalbumin as a function of amount coated” value [4] was “could be controlled by controlling the amounts coated on the microprotrusions”. The ovalbumin dose delivered ([5]; 5 seconds wearing time) was “more than 80%” and the ovalbumin dose delivered ([5]; 1 hour application time) was about 100%.
